This test has as its target transferrin receptor on NIH3T3 cells and on C2C12 and G8 myoblasts and myotubes (Mus musculus (Mouse)) (UniProt Q62351).

“human transferrin-polylysine conjugate (from UniProt P02787) (ligand)” registered a luciferase activity of under 1 log.
